# From patent US20220362394A1 (SUTRO BIOPHARMA, published 2022)
# Substitutions are numbered along the chain they refer to.
# T1: human BCMA-Fc (human, UniProt Q02223 1-54)
# T1 construct: Bought from R&D Systems; also called huBCMA-Fc; not shown: Fc part not described
# T1 sequence: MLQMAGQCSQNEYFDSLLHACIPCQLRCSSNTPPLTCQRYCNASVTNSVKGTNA
# T2: human BCMA on cells (human, UniProt Q02223 1-184)
# T2 construct: also called hBCMA; BCMA on NCI-H929, ARP-1, OPM-2, U266B1, MM.1S, RPMI-8226 cells
# T2 sequence: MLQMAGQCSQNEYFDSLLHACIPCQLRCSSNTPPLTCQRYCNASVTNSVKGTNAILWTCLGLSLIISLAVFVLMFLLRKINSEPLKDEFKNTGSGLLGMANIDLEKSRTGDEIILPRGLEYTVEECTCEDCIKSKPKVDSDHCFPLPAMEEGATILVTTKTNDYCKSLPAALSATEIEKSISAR
# B1: 11D6 (antibody, V domains shown)
# VH: AVTLDESGGGLQTPGGTLSLVCKASGFTFSSFNMFWVRQAPGEGLEWVAYIRNDGRSTSYGPAVKGRATISRDNGQSTVRLQLNNLRAEDTGTYFCAKTTCVGSGGCIDTWGHGTEVIVSS
# VL: ALTQPSSVSANPGETVEITCSGGNSDYGWFQQKSPGSAPVTVIYRNNQRPSDIPSRFSGSGSGSTNTLTITGVQAEDEAIYYCGNVDFTDDVFGAGTTLTVL
# notes: Chicken HybriFree-derived antibody; also called Antibody 32
# B2: 10E10 (antibody, V domains shown)
# VH: AVTLDESGGGLQTPGGGLSLVCKASGFTFSSYGMGWMRQAPGKGLEFVARINSGGSSYTDYGSAVKGRATISRDDGQSTVRLQLNNLRAEDTGIYYCTRGGGGASIDGWGHGTEVIVSS
# VL: ALTQPSSVSANPGETVKITCSGGGNYAGSYYYGWYQQKSPGSAPLTVIYNSNNRPSDIPSRFSGSLSGSTGTLTITGVRAEDEAVYFCGGFDSSTDAIFGAGTTLTVL
# notes: Chicken HybriFree-derived antibody; also called Antibody 46
# B3: 9A5 (antibody, V domains shown)
# VH: AVTLDESGGGLQTPGGAVSLVCKASGFSISDYGMGWMRQAPGKGLQYVARIDHDGRYTDYGAVVKGRATISRDNGQSTVRLQLNNLRAEDTGTYYCTRGGGAASIDTWGHGTEVIVSS
# VL: ALTQPSSVSANPGETVKITCSGGGNYVGGYYYGWYQQKAPGSALVTLIYNNNNRPSNIPSRFSGSTSGSTSTLTITGVRAEDEAVYFCGSFDSSTDAIFGAGTTLTVL
# notes: Chicken HybriFree-derived antibody; also called Antibody 42
# B4: 9E12 (antibody, V domains shown)
# VH: AVTLDESGGGLQTPGGGLSLVCKASGFTFSDYGLGWMRQAPGKGLEYVARINSAGSGTYYGSAVDGRATISRDNGQSTVRLQLNNLRAEDTGTYYCTRGGGGASIDGWGHGTEVIVSS
# VL: B2 VL with N25S, A27Y, L45V, V47L, S51N, L66T, F87Y, G90S
# notes: Chicken HybriFree-derived antibody; also called Antibody 43
# B5: 10H1 (antibody, V domains shown)
# VH: B4 VH with G17A, D31G, L34M, G57D, Y59D, S62A, D65K, G92A, Y95F
# VL: B2 VL with A27Y, S39A, L45V, S51N, D57N, L66K, R79Q, T95S
# notes: Chicken HybriFree-derived antibody; also called Antibody 45
# B6: 9H1 (antibody, V domains shown)
# VH: AVTLDESGGGLQTPGGALSLVCKGSGFTFSDYGMGWMRQAPGKGLQYVARINSAGSDTNYGSAVKGRATISRDDGQSTVRLQLSSLRAEDTGIYYCTRGGGGASIDGWGHGTEVIVSS
# VL: B2 VL with N25S, A27Y, L45V, V47L, S51N, L66T, F87Y, G90S
# notes: Chicken HybriFree-derived antibody; also called Antibody 44
# B7: 2190-B01 (antibody, V domains shown)
# VH: EVQLVESGGGLVQPGGSLRLSCAASGFNISSYWIHWVRQAPGKGLEWVGVITPSGGYTYYADSVKGRFTISADTSKNTAYLQMNSLRAEDTAVYYCARDLGGGYWVGFFDYWGQGTLVTVSS
# VL: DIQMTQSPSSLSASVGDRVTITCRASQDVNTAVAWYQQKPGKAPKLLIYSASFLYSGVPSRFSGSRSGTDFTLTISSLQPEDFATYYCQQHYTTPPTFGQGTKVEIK
# notes: also called Antibody 16
# Key:
# human BCMA-Fc [1] = target: T1, human BCMA-Fc; test: SPR Biacore, human BCMA-Fc kinetics
# Description: (§1) Anti-Fab or anti-Fc polyclonal antibodies were immobilized onto a CM5 chip (GE Life Sciences) using amine coupling chemistry (from Amine Coupling Kit, GE Life Sciences). The immobilization steps were carried out at a flow rate of 25 μL/min in 1×HBS-EP+ buffer (GE Life Sciences; 10× Stock diluted before use). The sensor surfaces were activated for 7 min with a mixture of NHS (0.05 M) and EDC (0.2 M). The anti-Fab or anti-Fc antibodies were injected over all 4 flow cells at a concentration of 25 μg/ml in 10 mM sodium acetate, pH 4.5, for 7 min. Ethanolamine (1 M, pH 8.5) was injected for 7 min to block any remaining activated groups.
# (§2) Off-rate and kinetic binding experiments were performed at 25° C. using 1×HBS-EP+ buffer. […] After capturing ligand (antibody) on the anti-Fab or anti-Fc surface, the analyte (human BCMA-Fc, cyno BCMA-Fc, or human BCMA from R&D Systems, custom protein production, or Sigma Aldrich, respectively) was bound for 180 seconds, followed by a 600 second dissociation phase at a flow rate of 50 μL/min. Between each ligand capture and analyte binding cycle, regeneration was carried out using 2 injections of 10 mM glycine pH 2.0 for 30 seconds at 30 μL/min, followed by a 30 second buffer wash step.
# (§3) The data was fit with the Biacore T200 Evaluation software, using a 1-1 Langmuir binding model. KD (affinity, nM) was determined as a ratio of the kinetic rate constants calculated from the fits of the association and dissociation phases.
# human BCMA on cells = target: T2, human BCMA on cells; test: FACS, NCI-H929 cells
# Description: (§4) Variants for which sufficient protein was purified in secondary screening were tested in a fluorescence-activated cell sorting (FACS) cell-binding assay. […] 6-12 point dilutions of anti-BCMA variants starting from concentrations of about 100-200 nM antibody were dispensed into each well using a BioMekFX (Beckman Coulter). Cells were then incubated on ice for 1 hr, washed with FACS buffer and incubated for 1 hr on ice with […] FACS buffer containing 2.5 μg/ml Alexa647-conjugated Goat Anti-Human IgG dispensed using BioMekFX (Beckman Coulter). Cells were then washed 2× with FACS buffer and fixed for 10 minutes in […] PBS with 2% paraformaldehyde (PFA) prior to fluorescence detection. Samples were acquired using a Beckton Dickinson LSRII FACS. Geometric Mean Fluorescence Intensity of BCMA antibody binding was analyzed using FlowJo® software (Tree Star, Inc.).
# cynomolgus BCMA on cells [2] = target: T3, cynomolgus BCMA on cells (cynomolgus monkey, UniProt Q02223 1-184 (human entry)); test: FACS, 293T-cynoBCMA cells
# T3 sequence (Q02223 other isoform, or with tags, fused parts or gaps): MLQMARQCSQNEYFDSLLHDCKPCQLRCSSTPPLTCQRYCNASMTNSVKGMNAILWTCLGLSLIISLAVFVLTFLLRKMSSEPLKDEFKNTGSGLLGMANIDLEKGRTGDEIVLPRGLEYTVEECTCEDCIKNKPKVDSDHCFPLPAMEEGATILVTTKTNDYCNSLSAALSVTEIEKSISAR
# Description: as §4
# rat BCMA on cells = target: T4, rat BCMA on cells (rat); test: FACS, 293T-ratBCMA cells
# T4 construct: whole, on cells
# cynomolgus BCMA on cells [3] = target: T3, cynomolgus BCMA on cells; test: FACS, 293T-cynoBCMA cells; NSB = non-saturating binding
# human BCMA-Fc [4] = target: T1, human BCMA-Fc; test: SPR Biacore, antibody captured, 25 C
# Description: as §1, §2, §3
# human BCMA-Fc [5] = target: T1, human BCMA-Fc; test: ELISA, coated huBCMA-Fc
# cyno BCMA-Fc = target: T5, cyno BCMA-Fc (cynomolgus monkey, UniProt Q02223 1-54 (human entry)); test: ELISA, coated cynoBCMA-Fc
# T5 construct: Custom protein production; also called cynomolgus BCMA-Fc; not shown: Fc part not described
Binder,Kd (human BCMA-Fc [1]) [nM],koff (human BCMA-Fc [1]) [s⁻¹],kon (human BCMA-Fc [1]) [M⁻¹ s⁻¹],Bmax (human BCMA on cells) [MFI],Kd (human BCMA on cells) [nM],Bmax (cynomolgus BCMA on cells [2]) [MFI],Kd (cynomolgus BCMA on cells [2]) [nM],Bmax (rat BCMA on cells) [MFI],Kd (rat BCMA on cells) [nM],binding result (cynomolgus BCMA on cells [3]),Kd (human BCMA-Fc [4]) [nM],koff (human BCMA-Fc [4]) [s⁻¹],kon (human BCMA-Fc [4]) [M⁻¹ s⁻¹],Bmax (human BCMA-Fc [5]),EC50 (human BCMA-Fc [5]) [nM],Bmax (cyno BCMA-Fc),EC50 (cyno BCMA-Fc) [nM]
B1,0.313,0.000318,1.02e+06,26400,47.5,27700,12.2,–,–,–,–,–,–,–,–,–,–
B2,–,–,–,3440,4.67,4540,18.9,906,6.83,–,–,–,–,–,–,–,–
B3,–,–,–,19700,1.01,18200,0.64,2780,7.13,–,–,–,–,–,–,–,–
B4,–,–,–,8140,0.52,13200,0.34,4690,2.61,–,–,–,–,–,–,–,–
B5,2.92,17.9,6.14e+09,22500,0.36,21200,0.25,4350,0.39,–,–,–,–,–,–,–,–
B6,–,–,–,6160,1,11400,0.39,3450,1.32,–,–,–,–,–,–,–,–
B7,–,–,–,–,–,–,–,–,–,binds,5.23,0.000712,136000,3.68e+06,0.3,2.15e+06,19.3
